Values of other authors in article PMC11736853.
Read-outs that look alike come from different tables or passages of the source. One block for each substance: values may come before it.

Legend:
[1] = target: CK2β triazole cyclised peptide (Homo sapiens) (UniProt P67870); assay: ITC
[2] = target: AIF peptide 39 (Homo sapiens) (UniProt O95831)
[3] = target: AIF bicyclic peptide 63 (Homo sapiens) (UniProt O95831)
[4] = target: AIF peptide 39 (Homo sapiens) (UniProt O95831); assay: SPR
[5] = target: AIF peptide 40 (Homo sapiens) (UniProt O95831); assay: SPR
Chain of AIF peptide 40 (Homo sapiens) (O95831 whole entry, looked up, tested part not stated): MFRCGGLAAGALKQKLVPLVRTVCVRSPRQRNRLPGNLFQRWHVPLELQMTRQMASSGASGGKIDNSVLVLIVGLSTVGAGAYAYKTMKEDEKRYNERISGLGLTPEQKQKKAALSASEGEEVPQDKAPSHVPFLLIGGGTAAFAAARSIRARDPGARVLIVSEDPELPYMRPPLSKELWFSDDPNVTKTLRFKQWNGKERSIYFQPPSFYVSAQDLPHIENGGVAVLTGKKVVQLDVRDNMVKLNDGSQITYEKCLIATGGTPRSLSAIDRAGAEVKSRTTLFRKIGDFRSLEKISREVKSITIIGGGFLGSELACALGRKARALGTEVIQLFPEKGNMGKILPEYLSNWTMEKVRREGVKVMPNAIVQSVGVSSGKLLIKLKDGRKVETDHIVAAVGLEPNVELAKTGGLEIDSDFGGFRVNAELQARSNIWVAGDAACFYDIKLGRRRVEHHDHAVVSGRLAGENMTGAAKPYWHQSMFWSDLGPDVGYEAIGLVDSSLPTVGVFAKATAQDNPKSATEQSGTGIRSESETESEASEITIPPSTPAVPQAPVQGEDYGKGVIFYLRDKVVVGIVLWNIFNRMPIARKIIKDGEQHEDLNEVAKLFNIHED

[6] = target: Nrf2 peptide 41 (Homo sapiens) (UniProt Q16236)
Chain of Nrf2 peptide 41 (Homo sapiens) (Q16236 whole entry, looked up, tested part not stated): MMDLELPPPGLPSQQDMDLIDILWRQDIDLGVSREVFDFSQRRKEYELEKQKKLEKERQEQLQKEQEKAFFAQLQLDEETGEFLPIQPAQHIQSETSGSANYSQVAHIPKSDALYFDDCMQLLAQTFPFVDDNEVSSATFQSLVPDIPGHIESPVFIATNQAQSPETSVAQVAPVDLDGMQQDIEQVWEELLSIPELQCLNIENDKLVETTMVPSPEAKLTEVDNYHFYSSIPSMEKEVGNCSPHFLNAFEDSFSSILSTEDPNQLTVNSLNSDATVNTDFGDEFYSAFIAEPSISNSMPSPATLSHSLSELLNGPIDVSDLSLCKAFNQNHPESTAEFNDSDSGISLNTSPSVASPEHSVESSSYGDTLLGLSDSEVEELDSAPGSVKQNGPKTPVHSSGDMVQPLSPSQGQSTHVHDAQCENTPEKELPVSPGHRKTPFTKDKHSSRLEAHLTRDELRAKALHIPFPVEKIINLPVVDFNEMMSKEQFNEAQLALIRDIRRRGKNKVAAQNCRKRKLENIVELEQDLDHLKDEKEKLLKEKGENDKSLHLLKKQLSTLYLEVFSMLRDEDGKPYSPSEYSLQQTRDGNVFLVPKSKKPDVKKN

[7] = target: TRF2 41-residue sequence (Homo sapiens) (UniProt Q15554)
[8] = target: R6IP peptide 64 (Homo sapiens) (UniProt Q6IQ26)
[9] = target: iNOS peptide 24 (Homo sapiens) (UniProt P35228); assay: ITC
RAP1 (Homo sapiens) = RAP1 (Homo sapiens) (UniProt Q9NYB0)
Chain of RAP1 (Homo sapiens) (Q9NYB0 2-399): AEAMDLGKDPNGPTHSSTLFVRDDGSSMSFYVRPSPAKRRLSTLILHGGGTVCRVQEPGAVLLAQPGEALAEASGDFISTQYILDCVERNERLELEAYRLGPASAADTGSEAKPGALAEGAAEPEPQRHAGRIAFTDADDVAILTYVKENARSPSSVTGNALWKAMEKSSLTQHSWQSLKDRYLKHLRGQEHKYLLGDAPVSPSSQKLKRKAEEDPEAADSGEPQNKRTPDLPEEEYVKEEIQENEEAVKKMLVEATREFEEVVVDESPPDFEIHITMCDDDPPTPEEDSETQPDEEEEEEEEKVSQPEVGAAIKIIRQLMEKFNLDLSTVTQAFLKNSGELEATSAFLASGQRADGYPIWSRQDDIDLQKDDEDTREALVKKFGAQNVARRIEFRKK

[10] = target: BCL9 peptide 53 347-381 (Homo sapiens) (UniProt O00512); assay: FP
Chain of BCL9 peptide 53 347-381 (Homo sapiens) (O00512 347-381): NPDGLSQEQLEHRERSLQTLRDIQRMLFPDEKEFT

[11] = target: BCL9 peptide 53 347-381 (Homo sapiens) (UniProt O00512); assay: competitive FP
[12] = target: BCL9 peptide 54 351-375 (Homo sapiens) (UniProt O00512); assay: competitive FP
Chain of BCL9 peptide 54 351-375 (Homo sapiens) (O00512 351-375): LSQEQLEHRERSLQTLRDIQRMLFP

Chain of β-catenin (P35222 2-781): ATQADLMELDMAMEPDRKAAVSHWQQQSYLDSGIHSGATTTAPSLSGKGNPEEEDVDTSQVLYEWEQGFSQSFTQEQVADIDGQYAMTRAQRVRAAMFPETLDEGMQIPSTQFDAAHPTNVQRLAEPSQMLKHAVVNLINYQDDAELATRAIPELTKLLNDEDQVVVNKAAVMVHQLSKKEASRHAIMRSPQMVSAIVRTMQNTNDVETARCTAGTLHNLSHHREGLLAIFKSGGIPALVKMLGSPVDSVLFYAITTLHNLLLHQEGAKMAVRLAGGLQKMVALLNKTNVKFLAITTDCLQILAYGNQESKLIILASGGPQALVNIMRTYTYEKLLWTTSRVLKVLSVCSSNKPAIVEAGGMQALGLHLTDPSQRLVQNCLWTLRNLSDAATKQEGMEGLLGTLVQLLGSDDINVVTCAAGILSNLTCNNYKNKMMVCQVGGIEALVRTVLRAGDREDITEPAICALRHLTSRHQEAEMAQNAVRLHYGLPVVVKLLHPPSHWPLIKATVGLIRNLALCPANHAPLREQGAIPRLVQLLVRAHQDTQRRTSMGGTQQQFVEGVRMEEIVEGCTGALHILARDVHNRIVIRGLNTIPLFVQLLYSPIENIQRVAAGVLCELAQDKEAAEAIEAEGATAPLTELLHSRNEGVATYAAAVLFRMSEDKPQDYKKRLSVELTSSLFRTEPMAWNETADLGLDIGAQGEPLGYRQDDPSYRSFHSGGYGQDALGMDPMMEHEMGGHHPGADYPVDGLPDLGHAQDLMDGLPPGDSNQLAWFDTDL
Chain of CypA (P62937 2-165): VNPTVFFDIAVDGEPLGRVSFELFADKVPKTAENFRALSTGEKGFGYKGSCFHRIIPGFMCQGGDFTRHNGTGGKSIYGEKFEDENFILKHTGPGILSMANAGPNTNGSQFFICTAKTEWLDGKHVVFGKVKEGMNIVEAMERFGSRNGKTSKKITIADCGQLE
Chain of AIF peptide 39 (Homo sapiens) (O95831 370-394): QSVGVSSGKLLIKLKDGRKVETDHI
Chain of RAP1 (Q9NYB0 2-399): as the sequence (Q9NYB0 2-399) above
Chain of SPSB2 (Q99619 whole entry): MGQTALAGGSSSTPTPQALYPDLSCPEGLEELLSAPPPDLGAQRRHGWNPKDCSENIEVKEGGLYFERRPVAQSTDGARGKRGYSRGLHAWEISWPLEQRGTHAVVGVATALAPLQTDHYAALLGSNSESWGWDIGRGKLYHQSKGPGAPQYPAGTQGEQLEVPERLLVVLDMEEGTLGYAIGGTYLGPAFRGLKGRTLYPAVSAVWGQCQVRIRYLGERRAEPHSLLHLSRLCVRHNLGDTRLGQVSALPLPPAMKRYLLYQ
Chain of CK2β triazole cyclised peptide (Homo sapiens) (P67870 2-215): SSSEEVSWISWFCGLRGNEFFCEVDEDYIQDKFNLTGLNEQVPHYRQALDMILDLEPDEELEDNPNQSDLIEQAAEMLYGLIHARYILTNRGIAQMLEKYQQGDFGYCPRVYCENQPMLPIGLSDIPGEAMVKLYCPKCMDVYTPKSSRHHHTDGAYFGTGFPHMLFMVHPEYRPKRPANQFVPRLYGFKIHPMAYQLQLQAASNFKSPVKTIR
Chain of CK2α (P68400 whole entry): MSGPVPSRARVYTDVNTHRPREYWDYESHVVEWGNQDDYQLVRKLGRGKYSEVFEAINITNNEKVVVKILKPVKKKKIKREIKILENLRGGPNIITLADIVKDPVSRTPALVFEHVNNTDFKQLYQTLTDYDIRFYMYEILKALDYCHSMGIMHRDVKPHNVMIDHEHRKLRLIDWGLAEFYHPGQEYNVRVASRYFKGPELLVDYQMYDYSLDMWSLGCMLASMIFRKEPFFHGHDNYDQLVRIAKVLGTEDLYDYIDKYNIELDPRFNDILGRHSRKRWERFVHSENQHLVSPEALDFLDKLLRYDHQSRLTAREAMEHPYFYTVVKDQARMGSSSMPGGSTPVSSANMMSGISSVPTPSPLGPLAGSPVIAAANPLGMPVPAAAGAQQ
Chain of Keap1 (Q14145 whole entry): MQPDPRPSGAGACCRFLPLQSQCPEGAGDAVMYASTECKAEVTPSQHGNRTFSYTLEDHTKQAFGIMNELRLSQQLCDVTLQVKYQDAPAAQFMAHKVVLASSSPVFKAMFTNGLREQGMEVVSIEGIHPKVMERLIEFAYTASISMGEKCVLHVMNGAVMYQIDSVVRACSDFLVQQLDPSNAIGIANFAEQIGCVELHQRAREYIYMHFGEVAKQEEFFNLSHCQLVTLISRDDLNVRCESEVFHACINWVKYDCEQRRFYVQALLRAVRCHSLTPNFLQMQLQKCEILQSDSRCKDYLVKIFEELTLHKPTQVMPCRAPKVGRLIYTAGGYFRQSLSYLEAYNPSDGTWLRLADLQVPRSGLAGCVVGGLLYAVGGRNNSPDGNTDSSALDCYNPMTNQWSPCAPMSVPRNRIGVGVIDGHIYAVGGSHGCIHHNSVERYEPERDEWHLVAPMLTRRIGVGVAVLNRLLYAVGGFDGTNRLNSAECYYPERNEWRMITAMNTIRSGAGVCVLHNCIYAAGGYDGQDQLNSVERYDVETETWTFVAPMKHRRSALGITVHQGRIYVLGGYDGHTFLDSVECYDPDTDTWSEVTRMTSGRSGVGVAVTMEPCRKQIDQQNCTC
Chain of Rab6a (P20340 2-208): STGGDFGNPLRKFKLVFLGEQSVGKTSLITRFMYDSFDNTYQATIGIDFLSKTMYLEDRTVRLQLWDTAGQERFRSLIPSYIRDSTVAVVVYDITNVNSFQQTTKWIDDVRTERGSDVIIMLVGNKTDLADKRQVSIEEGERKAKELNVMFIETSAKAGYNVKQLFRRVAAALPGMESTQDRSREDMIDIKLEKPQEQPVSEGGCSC

Substance: Keap1 (from UniProt Q14145)
Kd [6]: 27.3 nM

Substance: TRF2 41-residue peptide (from UniProt Q15554)
Kd (RAP1 (Homo sapiens)): 16.5 nM

Substance: β-catenin (from UniProt P35222)
Kd [10]: 616 nM | Ki [11]: 960 nM | Ki [12]: 1900 nM

Other lines, results leading:

Kd [1]: 460 nM
Substance: CK2α (from UniProt P68400)

Kd [2]: 5000 nM | Kd [3]: 850 nM | Kd [4]: 12000 nM | Kd [5]: 2400 nM
Substance: CypA (from UniProt P62937)

Kd [7]: 16.5 nM
Substance: RAP1 (from UniProt Q9NYB0)

Kd [8]: 7800 nM
Substance: Rab6a (from UniProt P20340)

Kd [9]: 13.3 nM
Substance: SPSB2 (from UniProt Q99619)
